Measurements published in patent publication US20240216432A1 (HEMOGENYX PHARMACEUTICALS, published 2024).
“And” between values parts separate entries of the source, which are not always exact repeats. Equal entries are not always repeated.

Assays:
[1] = biological target: T1, FLT3 (Fms Related Receptor Tyrosine Kinase 3) (human, UniProt P36888 27-993); experiment: flow cytometry on REH cells, anti-human IgG Fc Alexa Fluor 488 detection, with or without 10 nM FLT3L pre-incubation
T1 construct: whole, on cells; The target is endogenous FLT3 on human leukemia cell lines; also called human FLT3; FLK2
Text: Cells were then stained with various concentrations of the chimeric monoclonal antibody prepared in flow buffer. Cells were washed five times with flow buffer and stained with anti-human IgG Fc antibody conjugated to Alexa Fluor 488 (Jackson Immunoresearch Laboratories, 109-545-008). Cells were stained with 7-AAD (7-AAD Viability Staining Solution, Biolegend 420404) followed by flow cytometry analysis.

[2] = biological target: T1, FLT3 (Fms Related Receptor Tyrosine …); experiment: flow cytometry on REH cells, median fluorescence intensity against concentration, four-parameter fit, goat anti-human Fc FITC detection
Procedure: (§1) REH cells were incubated with varying concentrations (10⁻¹ to 10⁴ ng/mL) of the IgG1 or scFv molecules diluted in FACS buffer (hereinafter referred to simply as “buffer,” phosphate buffered saline (PBS) (Caisson Labs, no. PBL06)+2% BCS (GE Healthcare, no. SH30073.04)+1 mM EDTA (Invitrogen, no. 15575020)) in a final volume of 100 μL, in triplicate, for 30 minutes at 4° C. Cells were washed three times with buffer and incubated with secondary antibodies. IgG1 was detected with 1:200 goat anti-human Fc FITC (Jackson) secondary antibody and scFv was detected with anti-His FITC (1:200) secondary antibody. Secondary antibodies were incubated in 100 μL final volume in triplicate for 30 minutes at 4° C. Cells were washed once with buffer and resuspended in 200 uL buffer+1:100 7-AAD Viability Staining Solution (Biolegend, no. 420404), and analyzed by flow cytometry. Flow cytometry acquisition was performed with a Beckman Coulter CytoFLEX (Beckman Coulter), and analysis was performed with FlowJo (Treestar Inc, Ashland, OR). Plots show median fluorescence intensity of REH cells versus concentration of the primary antibody used. Variable slope (four parameters) curve was fit to the data and EC50 was used to compare binding affinities.

[3] = biological target: T1, FLT3 (Fms Related Receptor Tyrosine …); experiment: flow cytometry on REH cells, median fluorescence intensity against concentration, four-parameter fit, anti-His FITC detection
Procedure: as §1

B1: chimeric antibody 1-18BA (mouse VL and mouse VH, human IgG) (antibody, V domains shown)
VH: QVTLKESGPGILQPSQTLSLTCSFSGFSLSTSTMGVGWIRQPSGKGLEWLLHILWNDSKYYNPALKSRLTISKDTYNKQVFLKIANVDTADTATYYCARIVYYSTYVGYFDVWGAGTTVTVSS
VL: DIQMTQSPSSLSASLGERVSLTCRASQEISGYLSWLQQKPDGTIKRLIYAASTLHSGVPKRFSGSRSGSDYSLTISRLESEDVADYYCLQYASYPFTFGSGTKLEIK
notes: these appear to be the numbers of US 20190389955; also called chimeric anti-FLT3 antibody; cAb1977-10.0
binding result [1]: binds

B2: fully humanized anti-human FLT3 monoclonal IgG1, clone hum 1-18BA-v1 (antibody, V domains shown)
VH: QVTLKESGPTLVKPTQTLTLTCTFSGFSLSTSTMGVGWIRQPPGKALEWLAHILWNDSKRYNPSLKSRLTITKDTSKKQVVLTMTNMDPVDTATYYCARIVYYSTYVGYFDVWGQGTTVTVSS
VL: DIQMTQSPSSLSASVGDRVTITCRASQEISGYLSWLQQKPGKAIKRLIYAASTLQSGVPSRFSGSRSGSDYTLTISSLQPEDFATYYCLQYASYPFTFGQGTKLEIK
notes: also called humanized anti-FLT3 IgG; IgG1 molecule
EC50 [2]: 0.0621 µg/mL and 0.41 nM

B3: his-tagged scFv, clone hum 1-18BA-v1 (SEQ ID NO: 4 with a His tag on the C terminus) (scFv)
scFv: DIQMTQSPSSLSASVGDRVTITCRASQEISGYLSWLQQKPGKAIKRLIYAASTLQSGVPSRFSGSRSGSDYTLTISSLQPEDFATYYCLQYASYPFTFGQGTKLEIKGGGGSGGGGSGGGSGGGGSQVTLKESGPTLVKPTQTLTLTCTFSGFSLSTSTMGVGWIRQPPGKALEWLAHILWNDSKRYNPSLKSRLTITKDTSKKQVVLTMTNMDPVDTATYYCARIVYYSTYVGYFDVWGQGTTVTVSS
notes: also called humanized anti-FLT3 scFv; scFv molecule; not shown: C-terminal His tag
EC50 [3]: 0.0854 µg/mL and 3.42 nM
